# In paper PMC10192527, “A metal ion-dependent mechanism of RAD51 nucleoprotein filament disassembly”:
# How the values were obtained:
# RAD51 [1] = target: T1, RAD51 (Homo sapiens, UniProt Q06609 1-339); test: cryo-EM structure; ATP, Ca2+ (post-synaptic filament; second metal ion present); EMSA: 25 mM HEPES pH 7.5, 150 mM NaCl, 2 mM DTT, 5 mM CaCl2, 2 mM ATP or 0.5-10 mM ADP, 25 C 15 min; 0.5% agarose in 0.5x TB at 4 C; conditions: protein: recombinant; tags: none stated on the final protein; co-expressed with His6-MBP-BRCA2 BRC4 (pMBP4-RAD51); chain copies: 16; blunt ends, internal 10-nt mismatched bubble
# T1 sequence (Q06609 whole entry): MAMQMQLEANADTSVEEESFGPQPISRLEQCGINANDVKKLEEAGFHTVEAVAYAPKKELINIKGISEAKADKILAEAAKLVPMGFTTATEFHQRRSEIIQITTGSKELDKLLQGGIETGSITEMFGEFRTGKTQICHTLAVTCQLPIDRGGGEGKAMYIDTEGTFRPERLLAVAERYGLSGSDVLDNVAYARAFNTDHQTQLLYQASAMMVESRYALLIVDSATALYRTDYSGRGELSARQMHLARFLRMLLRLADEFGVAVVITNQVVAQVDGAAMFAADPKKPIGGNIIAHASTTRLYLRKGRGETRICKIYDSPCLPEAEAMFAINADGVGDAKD
# RAD51 [2] = target: T1, RAD51; test: cryo-EM structure (3.8 A); Ca2+, ATP (pre-synaptic filament; two Ca2+ per ATP site); EMSA: 25 mM HEPES pH 7.5, 150 mM NaCl, 2 mM DTT, 5 mM CaCl2, 2 mM ATP or 0.5-10 mM ADP, 25 C 15 min; 0.5% agarose in 0.5x TB at 4 C; conditions: protein: recombinant; tags: none stated on the final protein; co-expressed with His6-MBP-BRCA2 BRC4 (pMBP4-RAD51); chain copies: 10; single strand
Binder,binding result (RAD51 [1]),binding result (RAD51 [2])
R51-14:R51-15 (post-synaptic filament DNA) (dsDNA) DNA 1: TGGAGGTGCATCGAGCTCGCGACAAACCTTCTATGTTGAGCGTCAGTCGG DNA 2: CCGACTGACGCTCAACATAGGTACCACACGGCGAGCTCGATGCACCTCCA,binds,–
x60 ssDNA 60mer (ssDNA) DNA: ATGGTGTGTGTAGGTTAATGTGAGGAGGAGAGGTGAAGAAGGAGGAGAGAAGAAGGAGGC,–,binds
